One assay has as its target T1, MT1−MMPヒンジ領域ペプチドコンジュゲート (mouse, UniProt P02769 25-607 (bovine entry), C-terminal Cys coupled through the linker Sulfo-EMCS to the carrier protein).
T1 construct: peptide 3); also called ペプチド−BSA複合体; 固相化抗原
In words: SPR, peptide 3-BSA complex immobilised, scFv as analyte.

Assay [1] addresses T2, 抗MT1−MMP抗体MMPK9I (ハイブリドーマ19Bが産生する抗体IgG).
T2 construct: Mouse IgG from hybridoma 19B; Culture supernatant in the screening; in the flow immunoassay in complex with Cy5-labelled goat anti-mouse IgG F(ab')2; also called 抗体K9I
Nature of the assay: flow immunoassay: free hinge peptide (0.0-100 ng/mL) inhibits binding of Cy5-F(ab')2-labelled IgG MMPK9I to conjugate-coated polystyrene beads.

This note sets out measurements from JP2012115243A (dated 2012).

T1 sequence (P02769 25-607 limits assumed): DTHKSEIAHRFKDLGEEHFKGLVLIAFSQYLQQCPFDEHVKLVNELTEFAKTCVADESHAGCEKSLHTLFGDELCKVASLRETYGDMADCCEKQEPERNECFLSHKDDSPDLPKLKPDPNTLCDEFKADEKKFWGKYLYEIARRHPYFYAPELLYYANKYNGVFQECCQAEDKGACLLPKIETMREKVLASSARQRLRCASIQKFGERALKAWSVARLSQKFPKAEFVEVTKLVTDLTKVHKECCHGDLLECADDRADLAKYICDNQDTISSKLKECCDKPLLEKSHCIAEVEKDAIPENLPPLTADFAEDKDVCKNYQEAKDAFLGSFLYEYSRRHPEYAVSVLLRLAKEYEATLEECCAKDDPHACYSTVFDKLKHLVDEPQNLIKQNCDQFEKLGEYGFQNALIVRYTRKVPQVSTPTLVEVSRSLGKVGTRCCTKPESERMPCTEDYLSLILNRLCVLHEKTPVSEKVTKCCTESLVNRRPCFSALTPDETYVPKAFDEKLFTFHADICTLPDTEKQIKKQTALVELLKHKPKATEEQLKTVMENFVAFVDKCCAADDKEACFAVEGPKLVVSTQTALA

B1: 単鎖抗体MMPK9I−1 (scFv, V domains shown)
VH: QVQLQQSGAELVRPGASVTLSCKASGYRFTDYEMHWVRQTPVHGLEWIGAIDPETGGTAYNQKFKGKATLTEDKSSSTAYMELRSLTSEDSAVYYCTTMITTALDYWGQGTSVTVSS
VL: DVLMTQTPLSLPVSLGDQASISCRSSQSIVHSDGNTYLEWYLQKPGQSPKVLIYKVSNRFSGVPDRFSGSGSGTDFTLKITRVEAEDLGVYYCFQGSHVPYTFGGGTKLEIKR
As usually defined, the Kd is a measure of binding affinity in units of concentration. In the assay with MT1−MMPヒンジ領域ペプチドコンジュゲート, B1 came in with a Kd of around 10 nM.

B2: 単鎖抗体MMPK9E−1 (scFv, V domains shown)
VH: QIQLVQSGPELKKPGETVKISCKASGYTFTSYALHWVKQAPGKGLKWMGWKYTNTGEPTYGDDFKGRFAFSLETSASTAYLQINNLKNEDMATYFCARGGLSSYAMDYWGQGTSVTVSS
VL: DIVMSQSPSSLAVSAGEKVTMSCKSSQSLLNSRTRKNYLAWYQQKPGQSPKLLIYWASTRESGVPDRFTGTGSGTDFTLTISSVQAEDLAVYYCKQSYNLLVTFGAGTKLELKR
Molecule B2 displayed a Kd with MT1−MMPヒンジ領域ペプチドコンジュゲート of around 10 nM.

One may read the IC50 as the midpoint of a concentration-inhibition curve. High values mean weaker potency, low ones greater potency. The molecule PQPRTTSRPSVPDKPKNC (also called MT1−MMPペプチド; 抗原ペプチド) [MT1−MMPヒンジ領域ペプチド] showed an IC50 in assay [1] of around 4.74 ng/mL.

B3: 単鎖抗体MMP98−1 (scFv, V domains shown)
VH: EVQLQQSGPELKKPGETVKISCKASGYPVTKYGMNWVKQAPGKGLKWMGWINTYTGEPTYTDDFKGRFAFSLETSANTAYLQINNLKDEDTATYFCANSHGKYVEWFTYWGQGTTVTVSS
VL: DIELTQSPTTMAASPGEKITITCSASSSISSNYLHWYQQKPGFSPKLLIYRTSNLASGVPARFSGSGSGTSYSLTIGTMEAEDVATYYCQQGSSIPLTFGAGTKLELKR
For the molecule B3, the Kd with MT1−MMPヒンジ領域ペプチドコンジュゲート is around 10 nM.
